Experimental data reported in patent US20250218531A1 (ABSCI, published 2025).
Positions count from the first letter of the chain named.

B1: Trastuzumab HCDR3 variant ARYFGGSYAYGR (Fab, V domains shown)
VH: EVQLVESGGGLVQPGGSLRLSCAASGFNIKDTYIHWVRQAPGKGLEWVARIYPTNGYTRYADSVKGRFTISADTSKNTAYLQMNSLRAEDTAVYYCARYFGGSYAYGRWGQGTLVTVSS
VL: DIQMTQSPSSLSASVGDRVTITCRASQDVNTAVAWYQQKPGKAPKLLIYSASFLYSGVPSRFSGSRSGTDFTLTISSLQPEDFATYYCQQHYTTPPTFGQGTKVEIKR
B2: Trastuzumab HCDR3 variant ARFPVSSYAYGF (Fab, V domains shown)
VH: B1 VH with Y99F, F100P, G101V, G102S, R108F
VL: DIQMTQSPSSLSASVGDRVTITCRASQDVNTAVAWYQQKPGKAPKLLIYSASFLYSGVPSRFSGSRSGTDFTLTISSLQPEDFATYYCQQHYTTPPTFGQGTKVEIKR
B3: Trastuzumab HCDR3 variant ARGYFGGYYFAY (Fab, V domains shown)
VH: B1 VH with Y99G, F100Y, G101F, S103G, A105Y, Y106F, G107A, R108Y
VL: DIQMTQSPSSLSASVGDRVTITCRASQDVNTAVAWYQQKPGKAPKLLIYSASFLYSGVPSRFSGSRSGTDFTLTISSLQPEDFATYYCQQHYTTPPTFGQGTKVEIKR
B4: Trastuzumab HCDR3 variant ARGYYYYQWYYY (Fab, V domains shown)
VH: B1 VH with Y99G, F100Y, G101Y, G102Y, S103Y, Y104Q, A105W, G107Y, R108Y
VL: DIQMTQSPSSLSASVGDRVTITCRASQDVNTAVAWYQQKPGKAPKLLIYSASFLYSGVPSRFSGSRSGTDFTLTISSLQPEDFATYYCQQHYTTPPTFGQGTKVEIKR
B5: Trastuzumab HCDR3 variant ARSEWFWGSFAY (Fab, V domains shown)
VH: B1 VH with Y99S, F100E, G101W, G102F, S103W, Y104G, A105S, Y106F, G107A, R108Y
VL: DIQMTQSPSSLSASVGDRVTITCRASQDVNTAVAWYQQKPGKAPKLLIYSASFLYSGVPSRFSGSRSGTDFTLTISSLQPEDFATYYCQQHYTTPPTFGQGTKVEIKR
B6: Trastuzumab HCDR3 variant ARTTISSSSYTG (Fab, V domains shown)
VH: B1 VH with Y99T, F100T, G101I, G102S, Y104S, A105S, G107T, R108G
VL: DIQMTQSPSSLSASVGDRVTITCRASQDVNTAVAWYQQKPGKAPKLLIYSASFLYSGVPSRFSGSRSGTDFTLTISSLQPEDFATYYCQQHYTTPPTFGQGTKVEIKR
B7: Trastuzumab HCDR3 variant ARYLSYSYAWDN (Fab, V domains shown)
VH: B1 VH with F100L, G101S, G102Y, Y106W, G107D, R108N
VL: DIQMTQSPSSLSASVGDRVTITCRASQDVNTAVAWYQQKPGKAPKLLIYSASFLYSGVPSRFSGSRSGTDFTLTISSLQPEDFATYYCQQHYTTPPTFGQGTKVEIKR
B8: Trastuzumab HCDR3 variant ARYHYSGYFMDS (Fab, V domains shown)
VH: B1 VH with F100H, G101Y, G102S, S103G, A105F, Y106M, G107D, R108S
VL: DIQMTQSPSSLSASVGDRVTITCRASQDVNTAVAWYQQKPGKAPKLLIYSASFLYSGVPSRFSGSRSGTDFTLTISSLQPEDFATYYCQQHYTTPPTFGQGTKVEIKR
B9: Trastuzumab HCDR3 variant ARMSYYFYYMDY (Fab, V domains shown)
VH: B1 VH with Y99M, F100S, G101Y, G102Y, S103F, A105Y, Y106M, G107D, R108Y
VL: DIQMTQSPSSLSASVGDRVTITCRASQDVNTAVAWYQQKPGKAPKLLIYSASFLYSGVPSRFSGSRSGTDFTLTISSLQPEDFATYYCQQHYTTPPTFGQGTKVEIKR
B10: Trastuzumab HCDR3 variant ARNYYGSYYFDY (Fab, V domains shown)
VH: B1 VH with Y99N, F100Y, G101Y, A105Y, Y106F, G107D, R108Y
VL: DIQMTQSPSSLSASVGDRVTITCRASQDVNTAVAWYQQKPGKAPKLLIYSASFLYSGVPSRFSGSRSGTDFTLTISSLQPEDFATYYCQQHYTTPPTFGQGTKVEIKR
B11: Trastuzumab HCDR3 variant ARWRDYYYYFDY (Fab, V domains shown)
VH: B1 VH with Y99W, F100R, G101D, G102Y, S103Y, A105Y, Y106F, G107D, R108Y
VL: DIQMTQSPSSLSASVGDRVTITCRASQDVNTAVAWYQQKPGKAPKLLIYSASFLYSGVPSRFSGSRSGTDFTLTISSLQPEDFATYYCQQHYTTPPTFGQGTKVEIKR
B12: Trastuzumab HCDR3 variant AKYGTSNYGFSH (Fab, V domains shown)
VH: B1 VH with R98K, F100G, G101T, G102S, S103N, A105G, Y106F, G107S, R108H
VL: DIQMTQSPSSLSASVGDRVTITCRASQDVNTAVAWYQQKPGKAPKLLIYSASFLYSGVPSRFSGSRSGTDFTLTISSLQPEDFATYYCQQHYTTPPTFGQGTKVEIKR
B13: Trastuzumab HCDR3 variant ARGYYYYFYYNY (Fab, V domains shown)
VH: B1 VH with Y99G, F100Y, G101Y, G102Y, S103Y, Y104F, A105Y, G107N, R108Y
VL: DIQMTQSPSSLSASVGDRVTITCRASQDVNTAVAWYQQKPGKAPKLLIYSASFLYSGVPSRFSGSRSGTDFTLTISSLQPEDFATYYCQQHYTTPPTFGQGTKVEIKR
B14: Trastuzumab HCDR3 variant ARYSYGAFYYSI (Fab, V domains shown)
VH: B1 VH with F100S, G101Y, S103A, Y104F, A105Y, G107S, R108I
VL: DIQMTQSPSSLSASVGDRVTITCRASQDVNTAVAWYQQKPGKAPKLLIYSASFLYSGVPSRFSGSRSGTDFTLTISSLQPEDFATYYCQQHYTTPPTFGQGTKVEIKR
B15: Trastuzumab HCDR3 variant ARGYYHYYHYQY (Fab, V domains shown)
VH: B1 VH with Y99G, F100Y, G101Y, G102H, S103Y, A105H, G107Q, R108Y
VL: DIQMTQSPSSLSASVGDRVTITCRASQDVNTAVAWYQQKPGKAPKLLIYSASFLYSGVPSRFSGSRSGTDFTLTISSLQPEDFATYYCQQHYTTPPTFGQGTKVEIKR
B16: Trastuzumab HCDR3 variant ARASWNWYGGDY (Fab, V domains shown)
VH: B1 VH with Y99A, F100S, G101W, G102N, S103W, A105G, Y106G, G107D, R108Y
VL: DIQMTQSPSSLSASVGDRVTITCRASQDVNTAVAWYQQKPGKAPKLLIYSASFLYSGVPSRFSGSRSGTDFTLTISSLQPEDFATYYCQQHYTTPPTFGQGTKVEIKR
B17: Trastuzumab HCDR3 variant ARYHFSGYFMDA (Fab, V domains shown)
VH: B1 VH with F100H, G101F, G102S, S103G, A105F, Y106M, G107D, R108A
VL: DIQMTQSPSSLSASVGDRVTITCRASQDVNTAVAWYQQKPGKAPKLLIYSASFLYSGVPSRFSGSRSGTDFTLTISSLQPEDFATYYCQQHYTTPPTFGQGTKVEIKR
B18: Trastuzumab HCDR3 variant ARYYVGYYAMDY (Fab, V domains shown)
VH: B1 VH with F100Y, G101V, S103Y, Y106M, G107D, R108Y
VL: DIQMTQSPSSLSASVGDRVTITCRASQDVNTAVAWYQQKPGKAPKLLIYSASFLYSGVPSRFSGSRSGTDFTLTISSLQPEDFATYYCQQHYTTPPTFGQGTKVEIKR
B19: Trastuzumab HCDR3 variant ARYWYGSYVFDY (Fab, V domains shown)
VH: B1 VH with F100W, G101Y, A105V, Y106F, G107D, R108Y
VL: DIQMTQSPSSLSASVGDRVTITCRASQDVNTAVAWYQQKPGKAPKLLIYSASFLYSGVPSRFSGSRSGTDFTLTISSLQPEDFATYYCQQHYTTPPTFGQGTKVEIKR
B20: Trastuzumab HCDR3 variant ARFLYGSYYFDY (Fab, V domains shown)
VH: B1 VH with Y99F, F100L, G101Y, A105Y, Y106F, G107D, R108Y
VL: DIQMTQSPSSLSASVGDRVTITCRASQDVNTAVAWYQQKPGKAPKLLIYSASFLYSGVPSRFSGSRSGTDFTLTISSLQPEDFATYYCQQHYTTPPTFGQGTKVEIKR
B21: Trastuzumab HCDR3 variant ARYLEYTYAWDY (Fab, V domains shown)
VH: B1 VH with F100L, G101E, G102Y, S103T, Y106W, G107D, R108Y
VL: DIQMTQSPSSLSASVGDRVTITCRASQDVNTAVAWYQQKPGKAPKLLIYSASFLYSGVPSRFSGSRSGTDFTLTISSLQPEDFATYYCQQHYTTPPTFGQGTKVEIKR
B22: Trastuzumab HCDR3 variant AQSGSYFYPFSY (Fab, V domains shown)
VH: B1 VH with R98Q, Y99S, F100G, G101S, G102Y, S103F, A105P, Y106F, G107S, R108Y
VL: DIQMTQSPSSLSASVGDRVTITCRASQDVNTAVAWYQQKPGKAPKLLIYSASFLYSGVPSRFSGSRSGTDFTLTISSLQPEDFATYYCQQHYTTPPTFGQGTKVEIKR
B23: Trastuzumab HCDR3 variant ARSTDYWHASQY (Fab, V domains shown)
VH: B1 VH with Y99S, F100T, G101D, G102Y, S103W, Y104H, Y106S, G107Q, R108Y
VL: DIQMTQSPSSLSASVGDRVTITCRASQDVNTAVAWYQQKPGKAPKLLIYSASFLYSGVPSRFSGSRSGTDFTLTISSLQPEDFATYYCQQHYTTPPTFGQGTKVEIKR
B24: Trastuzumab HCDR3 variant ARYPYGYYAMDY (Fab, V domains shown)
VH: B1 VH with F100P, G101Y, S103Y, Y106M, G107D, R108Y
VL: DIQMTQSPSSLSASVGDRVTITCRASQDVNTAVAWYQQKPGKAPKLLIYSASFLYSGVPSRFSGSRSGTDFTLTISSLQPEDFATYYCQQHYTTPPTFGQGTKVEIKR
B25: Trastuzumab HCDR3 variant ARYQAYDNSYGV (Fab, V domains shown)
VH: B1 VH with F100Q, G101A, G102Y, S103D, Y104N, A105S, R108V
VL: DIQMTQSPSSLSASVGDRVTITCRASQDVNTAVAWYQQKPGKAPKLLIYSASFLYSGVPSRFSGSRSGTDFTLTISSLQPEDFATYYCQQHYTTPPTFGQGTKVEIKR
B26: Trastuzumab HCDR3 variant ARYLSYSYAWNY (Fab, V domains shown)
VH: B1 VH with F100L, G101S, G102Y, Y106W, G107N, R108Y
VL: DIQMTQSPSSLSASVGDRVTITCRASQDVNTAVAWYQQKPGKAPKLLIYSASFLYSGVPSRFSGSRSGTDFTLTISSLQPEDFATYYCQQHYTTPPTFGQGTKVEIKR
B27: Trastuzumab HCDR3 variant ARGYWWLYGFAY (Fab, V domains shown)
VH: B1 VH with Y99G, F100Y, G101W, G102W, S103L, A105G, Y106F, G107A, R108Y
VL: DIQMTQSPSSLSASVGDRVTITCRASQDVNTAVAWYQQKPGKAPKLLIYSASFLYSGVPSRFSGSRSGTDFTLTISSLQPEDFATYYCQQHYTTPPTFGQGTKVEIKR

Molecular target: human epidermal growth factor receptor 2 (HER2) extracellular domain (human, UniProt P04626 23-629)
Assay: SPR

| Binder | Kd [nM] | log(KD (M)) |
| --- | --- | --- |
| B1 | 28 | -7.55 log(M) |
| B2 | 36.2 | -7.44 log(M) |
| B3 | 130 | -6.88 log(M) |
| B4 | 33.6 | -7.47 log(M) |
| B5 | 114 | -6.94 log(M) |
| B6 | 248 | -6.61 log(M) |
| B7 | 42.6 | -7.37 log(M) |
| B8 | 113 | -6.95 log(M) |
| B9 | 48.9 | -7.31 log(M) |
| B10 | 120 | -6.92 log(M) |
| B11 | 33.8 | -7.47 log(M) |
| B12 | 27.6 | -7.56 log(M) |
| B13 | 30.3 | -7.52 log(M) |
| B14 | 70.4 | -7.15 log(M) |
| B15 | 95.1 | -7.02 log(M) |
| B16 | 92.9 | -7.03 log(M) |
| B17 | 103 | -6.99 log(M) |
| B18 | 71.6 | -7.15 log(M) |
| B19 | 78.3 | -7.11 log(M) |
| B20 | 135 | -6.87 log(M) |
| B21 | 218 | -6.66 log(M) |
| B22 | 83.2 | -7.08 log(M) |
| B23 | 179 | -6.75 log(M) |
| B24 | 78.1 | -7.11 log(M) |
| B25 | 102 | -6.99 log(M) |
| B26 | 28.9 | -7.54 log(M) |
| B27 | 172 | -6.77 log(M) |
